Assay results reported in publication doi:10.1101/2023.05.02.539095 (bioRxiv, 2023).

Target: the molecule itself
Experiment: SEC-MALS

B1: MSMEG_0317-His (wild type, made in E. coli) (natural protein)
chain: MNRAVALRIAACGLLGLGAALLIAALLLTTYTKGKIAKIPLDIDTSLVSDGTATAFDPDSLVAERFKIDRDVPVALQQQMSVEAPSNADVVTFQVGTTLRRTDRQQDAGLLLALVDTVTMNRNTAEAVSSENNPGGAVQKPRAIEDEKPPTNIALPHEGLTYRFPFDTEKKTYPFFDPIAQKAFDANYDGEEDVNGLTTYRFVQNVGYDADGKLADPIKYSSLYEDDADASVTARAEVWGVPGEPDESITMDRFYAASRTFWVDPVSGTIVKSEEHGYQYYAREALKPEVTYVDFKVTTNEESVESQVAAASDERDRIALWTRILPITFTALGLVSLVGGAVLGSFALRTESTLIDPGLDTADHGFFDTQGIQVPGAEAKTEKLPAQRPTDLPPDRPI
stoichiometry N: 2
